Values of other authors in PMC12590814.
Read-outs that look alike come from different tables or passages of the source.

What was measured:
[1] = target: calmodulin (Homo sapiens) (UniProt P0DP23)
[2] = target: calmodulin (Homo sapiens) (UniProt P0DP23); remark: listed apart in the source

| Substance | Kd [1] [nM] | Kd [2] [nM] |
| --- | --- | --- |
| PMCA2 (from UniProt Q01814) | 7.5 | – |
| PMCA3 (from UniProt Q16720) | – | 7.5 |
